{"source": "patent US20250257357", "key": {"[1]": {"molecular_target": "C-terminal SNAP-tagged H3.3 G34R (UniProt P84243)"}, "[2]": {"molecular_target": "C-terminal SNAP-tagged H3.3 K27M (UniProt P84243)"}}, "data": [{"substance": "Polynucleotide Kinase 3′-Phosphatase (PNKP)", "values": [{"measurement": "NHEJ activity by random plasmid integration assay upon knockdown of PNKP", "setting": "[1]", "value": "it does reduce NHEJ in H3.3K27M and G34R cells"}, {"measurement": "NHEJ activity by random plasmid integration assay upon knockdown of PNKP", "setting": "[2]", "value": "it does reduce NHEJ in H3.3K27M and G34R cells"}]}]}
